Biological target: autologous SHIV_(1157ipd3N4) gp120 monomer (SHIV_(1157ipd3N4))

B1: unmutated common ancestor (UCA) of the J038 lineage (antibody, V domains shown)
VH: QLQLQESGPGLVKPSETLSLTCAVSGGSISSNYWSWIRQPPGKGLEWIGRISGSGGSTDYNPSLKSRVTISTDTSKNQFSLKLSSVTAADTAVYYCAREVAEDDYGYYQPYFDYWGQGVLVTVSS
VL: DIQMTQSPSSLSASVGDRVTITCRASQGISSYLAWYQQKPGKAPKLLIYAASSLQSGVPSRFSGSGSGTDFTLTISSLQPEDFATYYCQQYNSLPLTFGGGTKVEIK
- neutralisation of the autologous tier 2 1157ipd3N4 pseudovirus on TZM-bl cells, IC50: 4.97 µg mL^−1

From publication PMC9130890
